In a protein production outcome set (Wang et al. 2014):

Assay: label from the status in PepcDB records
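Also: failed if final PepcDB status was selected cloned or expressed and not failed if soluble or beyond.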

| Sequence | protein production |
| --- | --- |
| MEGVELELERRSKFLNSLIQKKKAKEQQDQKDEFNVRVRASDMPLPQQNRAFSLSREILNATPGKADNKRLAHALKKDFDSAYGPAWHCIVGTSFGSYVTHSTGGFLYFQIDKVYVLLFKTAVEPLDQK | failed |
| MEHDLNDMMVFLAVVETGSFTLAADRLGMPKANVSRKVSRLEKNLAVTLLERSTRSQHLTEAGRRYLAHCKRIHEELDLATASVCELFHSYTGELKIGASVASGQQVLRPALGKFMRQYPDLKVQLNLVNRRVDFIEEGFDVVIRIGQLNDSMLIAKKLGAINRKIFASPSYLAKQGNPDKVEQLTEHQLLIMNPLNISGNKDLKLPLTSTDHETFTLDCQPRLLVDDFSMLKQAIVDGLGIGVLPDYMCRQEVASGQLVNILPDWGMAKVDIYALYPKHRAKIPKVKAFIDFVSELYGEVL | not failed |
| MEHKIVHVGDIPVANDKPFTLFAGMNVLESRDLAMQICEHYVKVTDKLGIPYVFKASFDKANRSSVHSYRGPGLEEGMKIFQELKETFGVKIITDVHTEAQAQPVADVVDVIQLPAFLARQTDLVEAMAKTGAVINVKKPQFMSPGQVGNIVEKFAECGNDKVILCERGSCHGYDNLVVDMLGFGVMKQASNGSPIIFDVTHSLQMRDPSGAASGGRREQTVELAKAGLATGIAGLFIEAHPNPDKARCDGPSALPLDKLEPFLAQMKALDDLIKSFAHIDIR | not failed |
| MEHKKALFCIFAIIHLFFWIIFSSLNHFKLDTFLSYEIAFFSVLLIIFASYLNYKKVIIKKSKNYEKDFNFISSLFIKKKQNLSKIIHFKVLKDDLKPNVKEKIHFFAMFFTLFKLMAYVVLVAGFLFLHRQDKLDIFAYICGISSLLVCVFIFILYIKKYESKKNY | failed |
| MEIAKGVEMLQLEFQEFIIHPILLWNDEMAVLIDTGFPGQFEDIQVEMKRVGVSVDKLKVVILTHQDIDHIGSLPDLLENGVSDIKVYAHELDKRYIEGDLPLLKDVHVENPPKGKVSDTVIDGQELPYCGGILILHTPGHTPGHISLYLKQSKTLIAGDSMYSVNGKLGGIHAPTTLNIMEAQQSLKKYLNLDIESVVCYHGGLSKGNIKIQLQNL | failed |
| MEIAVERVFTKEILKRAVNLFHVTVEEKPLGDFENYIFKAKGDNDEDYVLRLTHSSHRSKQEVEAELDFLRYVAENGAKVAGPLYSTSRNLVEEIVAEDGTFFFASLFIYAKGEQVKGAESPYWGDAYFEAWGKAIGQLHRLTMDYPKTDYRDTWEEDESGIVNELEDGQVKEIAAVLMDEIKALPVERETFGLMHGDIHQGNFHYDGKELTIFDFDDAAYNYFIHDLAMVLYYSVLFTPWTAEEKTDFARKQLQVLRKGYEYEHRLADSWYESLPLFLRLRDIGLYGTLQKKFKGKDMPDNFLKLSEELYERIIKREAIVNI | failed |
| MEIEYIKDYRDINQEDDTVLILGYFDGLHRGHKALFDKAREVANKEGLKVVVFTFTESPKLAFSRFSPELLLHITYPKKRYEKFADYGVNKLYLVDFTSKFSKVSSDHFITHYIKNLKAKHIVVGFDYKFGHNRTDSDYLTRNFEGQVYTIEEIKEDHRKISATWIRKLIQEGNVVKANHLLGYDLSTRGRVVHGDARGRTIGFPTANLAPIDNTYLPADGVYVTNVIVANKIYRSMTSLGKNVTFGGKELRLEVNIFDFDEEIYGEIIEIVWLDKIRDMEKFEGIEDLTDRLEYDKRTALNWKKDSKLS | failed |
| MEIIIYIFVSIAIISLQAITPFVIRKSECFGVNVGERANRNAELTQLKKQYVGQVILWTVLVAIIGIALIQGFHWSENIQAGIFIISMFGQLIVSFIIYYRFHHTTLQWKREKIESGEISTNSIIMVDTSFHRRKMVISYTWFVVPLLIFIITLAITAVFYPFAPEEFPVHFDMNGVVTDTVQKSVRAALLLPMLQLGMIALFIFINFVIARSKQTVENENPADSLKRNMLFRQISSKAMLIMCVILVIDFLVMQAVILLSLSPEIMMITMSISIILILLGTVLLAVKVGQGGSRLKFANEPDNVNKPIRDDDAFWKAGVIYFNRNDPALFVEKRFGIGWTINTARPVAWLTFVFIIAAIVFISILF | failed |
| MEIKAMFRDVSLSSRNFSEMLSRESKVVAALAAKSPLMAHANWRLKGNSLEEATLYPAFDADGSPSTPALAVLNEEQRGKKHSASHAAIWNGNTRPNEGASMSCHVSDEKVLPDRFSTRLGVPDCYAKSQDLADVVTTIVAAFNPLVVEASPEGYFDKQVFDDKPGVGWMLYLPKVITQQQVPEARALIPVSAKGKQTGTIIVSVTDAPFSVDNPEHVAIANRIEIRLVDQDLLPAYVDI | not failed |
| MEIKAYKKKNGTTAYKFKAYIGKKNGKSQYAEKSGFKTKADARAALHNIQEEIDNPTPKSSMTFKELYDEWLLVYEKEVQNSTYYKTTRAFEKHVLPVIGSTKLSDFTPMELQNFRNDLSEKLKFARKLFGMVRKVFNHAALLSYIQANPALPVTSQGIKKKVEEKKDFYDTDELRDFMALVEKTNDIKKIALFRILAFTGIRKGELLALEWKDYRKSTLDINKAISHSPVGYEILPPKANSNRLLSLDEKTCKILDELHQTYPESTRIFESENGGMLSPSKPRKWLLEITKEKEIEPIRIHAFRHTHASLLFESGMSLKQVQYRLGHADLKTTMNIYTHITKFAKDKIGQQFSDYIDF | failed |
| MEIKGESMQKSKFRRICVFCGSSQGKKSSYQDAAVDLGNELVSRNIDLVYGGGSIGLMGLVSQAVHDGGRHLTGETVGEVRAVADMHQRKAEMAKHSDAFIALPGGYGTLEELLEVITWAQLGIHDKPVGLLNVDGYYNSLLSFIDKAVEEGFISPTAREIIVSAPTAKELVKKLEVN | not failed |
| MEIKLFCVFIVFIILFSPFVIALSYPDVNYTAENGIIFVQNVTTGEKKPLYLHGVSWFGFELKDHVVYGLDKRNWKDILKDVKRLGFNAIRLPFCSESIRPDTRPSPERINYELNPDLKNLTSLEIMEKIIEYANSIGLYILLDYHRIGCEEIEPLWYTENYSEEQYIKDWIFLAKRFGKYPNVIGADIKNEPHGEAGWGTGDERDFRLFAEKVGREILKVAPHWLIFVEGTQYTHVPNIDEIIEKKGWWTFWGENLMGVKDYPVRLPRGKVVYSPHVYGPSVYMMDYFKSPDFPNNMPIIWETHFGYLTDLNYTLVIGEWGGNYEGLDKVWQDAFVKWLIKKKIYNFFYWCLNPESGDTGGIFLDDWKTVNWEKMRVIYRLIKAANPEFEEPLYIILKTNATTSILGVGERIRIYWYTNGKVIDSNFAHSSEGEMNITVTKSMTLYIIVKKGNQTLRKELKLYVIGGNYGSNISTTQLVTPKKGGERISTSLKLAISLLFILLFVWYLLREKH | failed |
| MEIKYLSLCILAGILFVSQVNASENNGKDDVKYAALTQKDLDALPVEKRASVLDELGFIHEYGIGVPMNRERALQYYKQACELGGNYGCYNVKYAYQYGDGVAKDSAQANKYAKKMNLDNLLIEQEYIDKFSQGIYAAKVLADTDKSQRPEFINALFNLLNNRPESDALFFSRIGFNQEKTFRLATLWVQDGDPQMDYQLGLLTLNDFSGHYVDEPYKARPASLKWFRAATEKGVVEAQSLLGGIYSGGEGDEWGIKPDIQEAQKWYGQAAEQGDSDAQIALGKIYYSGATGRTDYAKALALFTQVENDGTNSRSTMPLSWMYYNGLGTAPDCDKAWSYYKKASRYVGKKVEEKIFLSKCAADIQSRKNNADALPRVTLKKASIFSRGITAKPKECALIFQIGTDKIRNMANLHITLELKNADGMATEETLMIPPFGLNTLGIDMQNHDVDPLVTPYDLPLYTQDFCHGIGDIHFTLKSATATINGKNVDLLKADSVRFLDKE | failed |
| MEILQFIGYGNMAQAILEGAHEILSKRFILEITGRNPEKIAPFLQEKNIQAQIVPYKDAIDIHQKFVFLLFKPYNLKDFNYQGQAKSVLSALAGVGFKALSDAIDSLHYLKCMPNIASKFALSSTAVCEKSPMPLISQKALSVIESFGNCVRVGHEELVDASVATNGSALAFLSLVANSLKDAGIREGLNARGSLELVKMSFKGFAKLLEKERPEMIIEQICTPKGATIEGLSVLEKKGVRGAFIEACHKSVKKMRL | failed |
| MEINADFTKPVVIDTDQLEWRPSPMKGVERRMLDRIGGEVARATSIVRYAPGSRFSAHTHDGGEEFIVLDGVFQDEHGDYPAGTYVRNPPTTSHVPGSAEGCTIFVKLWQFDPADRTQFSKNMEAELGAPVEGISTSLLHEDERETVTHRKLEPGANLTSEAAGGIEVLVLDGDVTVNDEVLGRNAWLRLPEGEALSATAGARGAKIWMKTGHLRFVRTPEV | not failed |
